The record followed here is patent US20050053923A1.

Experiment [1] addresses Semi-purified recombinant West Nile virus NS1 with 8-His tag (West Nile virus) (UniProt Q9Q6P4). Description: sandwich ELISA: coated mAb 3.1112G captures rNS1, rabbit anti-WNV-NS1 polyclonal detection. (In general: An ELISA detects its analyte on a solid surface through an enzyme-linked reagent.)
Experiment [2] has as its target recombinant NS1 (rNS1), construct not stated. The description is as above.

Sequence of UniProt Q9Q6P4 (Q9Q6P4 799-1144, tags or fused parts left off): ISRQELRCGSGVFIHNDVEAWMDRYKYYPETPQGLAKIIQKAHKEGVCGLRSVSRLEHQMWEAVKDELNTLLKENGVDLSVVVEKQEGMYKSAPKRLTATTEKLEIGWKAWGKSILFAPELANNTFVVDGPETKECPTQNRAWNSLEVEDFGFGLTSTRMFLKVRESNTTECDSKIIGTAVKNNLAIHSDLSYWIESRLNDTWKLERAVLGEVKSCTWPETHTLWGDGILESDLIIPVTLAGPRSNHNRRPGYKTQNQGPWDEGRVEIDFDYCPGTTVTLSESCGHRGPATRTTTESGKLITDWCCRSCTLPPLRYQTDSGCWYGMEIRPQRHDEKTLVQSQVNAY

For “monoclonal antibody against Kunjin NS1 (3.1112G, Chemicon International)”, the O.D. was 0.887 O.D. 450 nm in experiment [1] and 0.577 O.D. 450 nm in experiment [2].
